Test results as given in article PMC3144404.

Target: actin, endogenous (human (endogenous in myoblasts and myotubes from human muscle biopsies)) (UniProt P60709)
Assay: co-IP

percent of input immunoprecipitated: 87%
Substance: STIM1L (long splice variant of stromal interaction molecule 1), endogenous (from UniProt Q13586-2 23-540) (natural protein)
